For data set [1], the target named is T1, ARID4B TD151 (Homo sapiens, UniProt Q4LE39 1-151).
T1 sequence: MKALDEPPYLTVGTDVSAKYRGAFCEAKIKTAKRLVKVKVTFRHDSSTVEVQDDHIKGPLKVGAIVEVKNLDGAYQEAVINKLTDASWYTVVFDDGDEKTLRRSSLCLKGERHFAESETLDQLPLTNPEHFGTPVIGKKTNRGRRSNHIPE
In words: NMR titration; n fixed 2; 50 mM Tris-HCl pH 7.6, 50 mM NaCl (buffer A); ITC 25 C; EMSA 4 C, 12 uM DNA, 8% native gel in TBE; NMR titration by 1H-15N HSQC (temperature not stated for titration; buffer A also defined elsewhere as 20 mM phosphate, 100 mM NaCl, pH 7.0). Conditions: protein: recombinant; chain copies: 3; 5' overhang 1 nt on each strand (11 bp paired).

The target in data set [2] is T2, ARID4B TD121 (Homo sapiens, UniProt Q4LE39 1-121).
T2 sequence: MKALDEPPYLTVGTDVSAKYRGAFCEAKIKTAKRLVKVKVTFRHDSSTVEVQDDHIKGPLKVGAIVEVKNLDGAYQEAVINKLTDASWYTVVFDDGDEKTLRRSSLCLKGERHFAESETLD
Briefly: NMR titration; n fixed 3; 50 mM Tris-HCl pH 7.6, 50 mM NaCl (buffer A); ITC 25 C; EMSA 4 C, 12 uM DNA, 8% native gel in TBE; NMR titration by 1H-15N HSQC (temperature not stated for titration; buffer A also defined elsewhere as 20 mM phosphate, 100 mM NaCl, pH 7.0). Conditions: protein: recombinant; 5' overhang 1 nt on each strand (11 bp paired). On the technique in general: Mobility shift assays separate free from complexed probe on a gel.

The target of data set [3] is T1, ARID4B TD151. In words: ITC; 50 mM Tris-HCl pH 7.6, 50 mM NaCl (buffer A); ITC 25 C; EMSA 4 C, 12 uM DNA, 8% native gel in TBE; NMR titration by 1H-15N HSQC (temperature not stated for titration; buffer A also defined elsewhere as 20 mM phosphate, 100 mM NaCl, pH 7.0). Particulars: protein: recombinant; chain copies: 3; 5' overhang 1 nt on each strand (17 bp paired). A general note: ITC needs no label: the signal is the heat of the interaction.

A further data set deals with T3, ARID4A TD151 (Homo sapiens, UniProt P29374 4-151).
T3 sequence: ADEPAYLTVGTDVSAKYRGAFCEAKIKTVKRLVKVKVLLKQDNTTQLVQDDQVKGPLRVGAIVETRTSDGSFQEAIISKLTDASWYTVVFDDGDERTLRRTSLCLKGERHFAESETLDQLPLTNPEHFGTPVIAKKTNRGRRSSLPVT
Briefly: NMR titration; n = 3; 50 mM Tris-HCl pH 7.6, 50 mM NaCl (buffer A); ITC 25 C; EMSA 4 C, 12 uM DNA, 8% native gel in TBE; NMR titration by 1H-15N HSQC (temperature not stated for titration; buffer A also defined elsewhere as 20 mM phosphate, 100 mM NaCl, pH 7.0). Particulars: protein: recombinant; 5' overhang 1 nt on each strand (17 bp paired).

The target in data set [4] is T1, ARID4B TD151. Briefly: NMR titration; n fixed 3; 50 mM Tris-HCl pH 7.6, 50 mM NaCl (buffer A); ITC 25 C; EMSA 4 C, 12 uM DNA, 8% native gel in TBE; NMR titration by 1H-15N HSQC (temperature not stated for titration; buffer A also defined elsewhere as 20 mM phosphate, 100 mM NaCl, pH 7.0). Conditions: protein: recombinant; chain copies: 3; 5' overhang 1 nt on each strand (17 bp paired).

Data set [5] concerns the target T2, ARID4B TD121. Briefly: NMR titration; n fixed 5; text says ~110; 50 mM Tris-HCl pH 7.6, 50 mM NaCl (buffer A); ITC 25 C; EMSA 4 C, 12 uM DNA, 8% native gel in TBE; NMR titration by 1H-15N HSQC (temperature not stated for titration; buffer A also defined elsewhere as 20 mM phosphate, 100 mM NaCl, pH 7.0). Conditions: protein: recombinant; 5' overhang 1 nt on each strand (17 bp paired).

B1: dsDNA2 (dsDNA)
DNA 1: CTGTCAAAGGTG
DNA 2: TCACCTTTGACA
Turning to B1, the Kd – broadly, the equilibrium constant for the complex coming apart – in the data set with ARID4B TD151 [1] is 79 ± 3 µM; with ARID4B TD121 [2] it was 237 ± 7 µM.

B2: dsDNA1 (dsDNA)
DNA 1: CTCAGGTCAAAGGTCACG
DNA 2: TCGTGACCTTTGACCTGA
As to B2, the Kd was 27 ± 8 µM with ARID4B TD151 [3], 9.7 ± 0.9 µM with ARID4A TD151, 22 µM with ARID4B TD151 [4] and 111 ± 2 µM with ARID4B TD121 [5].

(Values after article PMC8038949, “Structural basis for the DNA-binding activity of human ARID4B Tudor domain”.)
